The values below come from paper PMC11885566 (Communications Biology, 2025).

The term Kd denotes the free concentration of one partner at which half of the binding sites on the other are occupied at equilibrium, for simple one-to-one binding. Read a high Kd as lower affinity.

The test concerns the target SARS-CoV-2 XBB.1.16 RBD protein (SARS-CoV-2 Omicron XBB.1.16, strain). The experiment in a line: BLI.

B1: CYFN1006-1 (antibody, V domains shown)
VH: QMQLVQSGAEVKKPGESLKISCKGSGYTFSYYWIGWVRQMPGKGLEWMGIIYPGDSDTRYSPSFQGQVTISADKSISTAYLHWSSLKASDTAMYYCARQGDLGDWILLGYWGQGTLVTVSS
VL: QSALTQPRSVSGSLGQSVTISCTGISSDVGGDNYVSWYQQHPGKAPKLMIYDVSKRPSGVPDRFSGSKSGNTASLTISGLQADDEADYYCCSYALSRVVFGGGTMLTVL
Take B1: the Kd came to 1.37 nM.
